Assay results reported in article PMC3947954.

What was measured:
[1] = biological target: HIP14-GFP (Huntingtin Interacting Protein 14, GFP tagged) (human (from the printed RefSeq entries)) (UniProt Q8IUH5); test: co-IP; COS-7 cells transiently co-transfected, harvested after 24 h; lysed in 1% SDS TEEN, diluted in four volumes 1% TritonX-100 TEEN; GFP immunoprecipitated overnight (goat anti-GFP, Dynabeads Protein G); blots probed for HTT and GFP; HTT band as percent of the GFP band, normalized to 15Q HTT 1–548
UniProt Q8IUH5, sequence (Q8IUH5 whole entry): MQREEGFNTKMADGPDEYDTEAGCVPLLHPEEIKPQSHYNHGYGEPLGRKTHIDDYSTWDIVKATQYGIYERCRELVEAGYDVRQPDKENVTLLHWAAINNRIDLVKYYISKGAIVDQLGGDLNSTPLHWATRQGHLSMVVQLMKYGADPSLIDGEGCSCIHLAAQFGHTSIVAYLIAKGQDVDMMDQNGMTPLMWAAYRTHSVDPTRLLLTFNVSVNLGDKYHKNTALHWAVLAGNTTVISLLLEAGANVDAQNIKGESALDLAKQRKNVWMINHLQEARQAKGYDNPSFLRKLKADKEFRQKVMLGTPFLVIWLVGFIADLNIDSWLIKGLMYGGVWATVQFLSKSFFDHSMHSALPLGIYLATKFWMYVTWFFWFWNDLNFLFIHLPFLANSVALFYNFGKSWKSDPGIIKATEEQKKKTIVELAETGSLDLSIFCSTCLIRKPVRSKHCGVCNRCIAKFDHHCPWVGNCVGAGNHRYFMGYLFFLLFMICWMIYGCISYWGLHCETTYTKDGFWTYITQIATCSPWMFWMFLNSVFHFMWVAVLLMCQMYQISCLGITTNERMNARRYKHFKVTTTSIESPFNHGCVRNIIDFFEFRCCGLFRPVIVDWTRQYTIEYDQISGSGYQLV

[2] = biological target: HIP14L-GFP (Huntingtin Interacting Protein 14-like, GFP tagged) (human (from the printed RefSeq entries)) (UniProt Q8IUH4); test: as above
UniProt Q8IUH4, sequence (Q8IUH4 whole entry): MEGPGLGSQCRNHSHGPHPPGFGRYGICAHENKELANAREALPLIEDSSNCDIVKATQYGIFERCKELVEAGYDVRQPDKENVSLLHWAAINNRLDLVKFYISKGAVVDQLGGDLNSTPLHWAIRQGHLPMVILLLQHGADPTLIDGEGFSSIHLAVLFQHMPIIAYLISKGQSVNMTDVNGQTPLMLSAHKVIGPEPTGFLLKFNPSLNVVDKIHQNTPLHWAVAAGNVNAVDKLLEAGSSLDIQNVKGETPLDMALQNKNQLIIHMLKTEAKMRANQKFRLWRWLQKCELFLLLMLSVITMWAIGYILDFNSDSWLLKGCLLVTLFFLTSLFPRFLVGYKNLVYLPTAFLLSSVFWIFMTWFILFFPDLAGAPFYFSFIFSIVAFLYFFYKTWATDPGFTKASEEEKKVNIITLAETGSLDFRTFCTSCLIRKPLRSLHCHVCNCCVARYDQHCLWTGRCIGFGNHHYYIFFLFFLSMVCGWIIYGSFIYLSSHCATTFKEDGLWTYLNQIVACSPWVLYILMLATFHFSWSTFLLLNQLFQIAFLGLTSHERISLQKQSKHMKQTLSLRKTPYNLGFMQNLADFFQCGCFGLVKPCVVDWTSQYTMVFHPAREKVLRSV

percent less co-immunoprecipitated than 15Q HTT 1–548 [1]: 57%
percent decrease of interaction against 15Q HTT 1–548 [2]: 54%
Substance: 128Q HTT 1–548 (domain or fragment)
